These results are taken from the supplement of paper PMC9112550, “Optimization of the antimicrobial peptide Bac7 by deep mutational scanning” (BMC Biology, 2022).

The test system of the series is Escherichia coli TOP10. Nature of the series: shrunken log2 fold change of peptide-encoding DNA abundance (4.5 h post-induction vs induction); higher = less antimicrobial activity (less host growth inhibition). To be noted: time post-induction: 4.5 h; library: site-saturation at positions 5, 18, 19, 20.
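Further: peptides expressed intracellularly from a pBAD plasmid library in pooled LB shake-flask culture, induced with 0.3% L-arabinose, DNA abundance read by NGS, three biological replicates, DESeq2 with apeglm shrinkage.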

Turning to RRIRPRPPRLPRPRPRPEQQPRP, the “shrunken log2 fold change” value is -0.0146.
RRIRKRPPRLPRPRPRPHMGPRP: the “shrunken log2 fold change” value is -0.0935.
As for RRIRFRPPRLPRPRPRPNRSPRP, the “shrunken log2 fold change” value is -0.299.
As for RRIRSRPPRLPRPRPRPWYVPRP, the “shrunken log2 fold change” value is -0.36.
As for RRIRFRPPRLPRPRPRPDGYPRP, the figure is 0.028; as for RRIRMRPPRLPRPRPRPASRPRP, 0.201; as for RRIRVRPPRLPRPRPRPTHWPRP, 0.509.
RRIRNRPPRLPRPRPRPNWPPRP: the “shrunken log2 fold change” value stood at 0.142.
For the sequence RRIRLRPPRLPRPRPRPKTHPRP, the “shrunken log2 fold change” value is -0.0161.
The same measure for RRIRCRPPRLPRPRPRPWSPPRP: -0.0395.
The same measure for RRIRMRPPRLPRPRPRPVAAPRP: 2.1.
In the case of RRIRCRPPRLPRPRPRPGAHPRP, the “shrunken log2 fold change” value was 0.0157.
On to RRIRHRPPRLPRPRPRPDMYPRP, for which the “shrunken log2 fold change” value is -0.00022.
For RRIRFRPPRLPRPRPRPPPQPRP, the “shrunken log2 fold change” value stood at 1.33.
For the sequence RRIRVRPPRLPRPRPRPQWDPRP, the “shrunken log2 fold change” value is -0.0347.
The same measure for RRIRRRPPRLPRPRPRPVAVPRP: 0.348; for RRIRYRPPRLPRPRPRPYRKPRP: -0.178.
Take RRIRYRPPRLPRPRPRPFWVPRP: the “shrunken log2 fold change” value is -0.0684.
Turning to RRIRERPPRLPRPRPRPPHDPRP, the “shrunken log2 fold change” value is 0.0906.
The same measure for RRIRVRPPRLPRPRPRPHKFPRP: 0.0807.
On to RRIRARPPRLPRPRPRPGETPRP, for which the “shrunken log2 fold change” value was found to be 0.238.
Consider RRIRRRPPRLPRPRPRPYCDPRP, for which the “shrunken log2 fold change” value is -0.0241.
Take RRIRKRPPRLPRPRPRPYGDPRP: the “shrunken log2 fold change” value is -0.224.
RRIRPRPPRLPRPRPRPFLRPRP: the “shrunken log2 fold change” value was -0.327.
As for RRIRVRPPRLPRPRPRPTRWPRP, the “shrunken log2 fold change” value is 0.173.
In the case of RRIRYRPPRLPRPRPRPFKTPRP, the “shrunken log2 fold change” value was -0.398.
For the sequence RRIRERPPRLPRPRPRPMRKPRP, the “shrunken log2 fold change” value was -0.0645.
Regarding RRIRFRPPRLPRPRPRPNMAPRP, the “shrunken log2 fold change” value is -0.245.
On to RRIRPRPPRLPRPRPRPMWLPRP, for which the “shrunken log2 fold change” value was found to be 0.217.
For the sequence RRIRIRPPRLPRPRPRPNAQPRP, the “shrunken log2 fold change” value was -0.0106.
The same measure for RRIRERPPRLPRPRPRPHHWPRP: -0.315; for RRIRHRPPRLPRPRPRPDYPPRP: -0.111.
The same measure for RRIRNRPPRLPRPRPRPNRYPRP: -0.0433; for RRIRIRPPRLPRPRPRPSQEPRP: -0.317.
RRIRHRPPRLPRPRPRPDANPRP: the “shrunken log2 fold change” value came to 0.152.
Take RRIRDRPPRLPRPRPRPKNYPRP: the “shrunken log2 fold change” value is -0.303.
Turning to RRIRQRPPRLPRPRPRPNAEPRP, the “shrunken log2 fold change” value worked out at 0.053.
As for RRIRTRPPRLPRPRPRPKPLPRP, the “shrunken log2 fold change” value is -0.0401.
The same measure for RRIRQRPPRLPRPRPRPEWNPRP: -0.175; for RRIRERPPRLPRPRPRPCWDPRP: -0.00421.
Consider RRIRFRPPRLPRPRPRPEPCPRP, for which the “shrunken log2 fold change” value is -0.111.
Regarding RRIRPRPPRLPRPRPRPVDWPRP, the “shrunken log2 fold change” value was 0.656.
With RRIRSRPPRLPRPRPRPRNDPRP, the “shrunken log2 fold change” value was -0.181.
RRIRWRPPRLPRPRPRPNQAPRP: the “shrunken log2 fold change” value was -0.0796.
For RRIRSRPPRLPRPRPRPAPKPRP, the “shrunken log2 fold change” value came to 0.569.
Consider RRIRRRPPRLPRPRPRPLCCPRP, for which the “shrunken log2 fold change” value was determined as 0.293.
On to RRIRDRPPRLPRPRPRPIQKPRP, for which the “shrunken log2 fold change” value is -0.0081.
The same measure for RRIRMRPPRLPRPRPRPQNMPRP: -0.631; for RRIRRRPPRLPRPRPRPPLEPRP: 0.739.
As for RRIRIRPPRLPRPRPRPMTFPRP, the “shrunken log2 fold change” value was -0.0432.
Turning to RRIRHRPPRLPRPRPRPWFMPRP, the “shrunken log2 fold change” value is -0.474.
As to RRIRNRPPRLPRPRPRPYDKPRP, the “shrunken log2 fold change” value was -0.388.
As to RRIRLRPPRLPRPRPRPVQRPRP, the “shrunken log2 fold change” value was 0.134.
Take RRIRNRPPRLPRPRPRPGMIPRP: the “shrunken log2 fold change” value amounted to 0.00966.
For the sequence RRIRNRPPRLPRPRPRPSQIPRP, the “shrunken log2 fold change” value is -0.664.
Turning to RRIRVRPPRLPRPRPRPTVPPRP, the “shrunken log2 fold change” value is -0.138.
Consider RRIRKRPPRLPRPRPRPDDFPRP, for which the “shrunken log2 fold change” value was -0.00262.
RRIRARPPRLPRPRPRPKGPPRP: the “shrunken log2 fold change” value was determined as 0.212.
As for RRIRWRPPRLPRPRPRPPAQPRP, the figure is 0.54; as for RRIRARPPRLPRPRPRPCLPPRP, 0.0185; as for RRIRMRPPRLPRPRPRPMSTPRP, 0.0207.
Regarding RRIRVRPPRLPRPRPRPMITPRP, the “shrunken log2 fold change” value stood at 0.104.
With RRIRHRPPRLPRPRPRPKSMPRP, the “shrunken log2 fold change” value was -0.503.
For the sequence RRIRKRPPRLPRPRPRPYPRPRP, the “shrunken log2 fold change” value is -0.00783.
In the case of RRIRWRPPRLPRPRPRPCVNPRP, the “shrunken log2 fold change” value is 0.0912.
For the sequence RRIRRRPPRLPRPRPRPKPWPRP, the “shrunken log2 fold change” value is 0.274.
Regarding RRIRTRPPRLPRPRPRPIQCPRP, the “shrunken log2 fold change” value was -0.521.
As for RRIRKRPPRLPRPRPRPKRRPRP, the figure is 0.0103; as for RRIRSRPPRLPRPRPRPQNMPRP, -0.268.
Consider RRIRMRPPRLPRPRPRPCDLPRP, for which the “shrunken log2 fold change” value is 0.041.
The same measure for RRIRVRPPRLPRPRPRPRCYPRP: -0.31; for RRIRKRPPRLPRPRPRPGKPPRP: 0.115; for RRIRRRPPRLPRPRPRPVDCPRP: 0.12.
As for RRIRSRPPRLPRPRPRPAHCPRP, the figure is 0.0412; as for RRIRLRPPRLPRPRPRPLYQPRP, -0.833; as for RRIRQRPPRLPRPRPRPPTEPRP, -0.153.
Consider RRIRHRPPRLPRPRPRPWVEPRP, for which the “shrunken log2 fold change” value is -0.0959.
As to RRIRNRPPRLPRPRPRPECNPRP, the “shrunken log2 fold change” value is -0.0153.
For the sequence RRIRGRPPRLPRPRPRPGMGPRP, the “shrunken log2 fold change” value worked out at 0.963.
As to RRIRIRPPRLPRPRPRPFTPPRP, the “shrunken log2 fold change” value is -0.875.
RRIRNRPPRLPRPRPRPNWEPRP: the “shrunken log2 fold change” value came to 0.0299.
As for RRIRCRPPRLPRPRPRPKLRPRP, the figure is 0.564; as for RRIRVRPPRLPRPRPRPTWEPRP, 0.00966; as for RRIRMRPPRLPRPRPRPKQFPRP, 0.255.
As for RRIRPRPPRLPRPRPRPTLHPRP, the figure is 0.0853; as for RRIRCRPPRLPRPRPRPVPYPRP, -0.533.
On to RRIRHRPPRLPRPRPRPQGFPRP, for which the “shrunken log2 fold change” value is -0.00136.
As for RRIRPRPPRLPRPRPRPRHMPRP, the figure is 0.116.
Take RRIRARPPRLPRPRPRPCWKPRP: the “shrunken log2 fold change” value is -0.16.
As to RRIRCRPPRLPRPRPRPYLRPRP, the “shrunken log2 fold change” value is -0.00889.
Consider RRIRGRPPRLPRPRPRPNDCPRP, for which the “shrunken log2 fold change” value was -0.04.
